Test results as given in the Immune Epitope Database (IEDB).
Values belong to the sequence of their own block, whether it stands above or below them.

Key:
[1] = target: HLA-A*30:01; experiment: IEDB peptide-MHC binding, purified MHC/competitive/radioactivity; filed as Kd, often an IC50 or EC50 that approximates it; ≥ and ≤ were set here for values at or beyond the usual limits of such assays
[2] = target: HLA-A*24:02; experiment: IEDB peptide-MHC binding, purified MHC/competitive/fluorescence; ≥ and ≤ were set here for values at or beyond the usual limits of such assays
[3] = target: HLA-A*02:01; experiment: as above
[4] = target: HLA-A*32:01; experiment: IEDB peptide-MHC binding, purified MHC/competitive/radioactivity; filed as Kd, often an IC50 or EC50 that approximates it; ≥ and ≤ were set here for values at or beyond the usual limits of such assays; conditions: source organism: Mammarenavirus lassaense
[5] = target: HLA-A*30:02; experiment: as above; conditions: source organism: Mammarenavirus lassaense
[6] = target: HLA-A*26:01; experiment: as above
[7] = target: HLA-A*29:02; experiment: as above; conditions: source organism: Mammarenavirus lassaense
[8] = target: HLA-A*01:01; experiment: as above; conditions: source organism: Mammarenavirus lassaense
[9] = target: HLA-A*68:02; experiment: as above
[10] = target: HLA-A*02:02; experiment: as above; conditions: source organism: Trypanosoma cruzi
[11] = target: HLA-A*02:03; experiment: as above; conditions: source organism: Trypanosoma cruzi
[12] = target: HLA-A*02:06; experiment: as above
[13] = target: HLA-B*51:01; experiment: as above
[14] = target: HLA-B*58:01; experiment: IEDB peptide-MHC binding, purified MHC/direct/fluorescence; filed as Kd, often an IC50 or EC50 that approximates it; ≥ and ≤ were set here for values at or beyond the usual limits of such assays
[15] = target: HLA-B*57:01; experiment: as above
[16] = target: HLA-A*68:01; experiment: IEDB peptide-MHC binding, purified MHC/competitive/radioactivity; filed as Kd, often an IC50 or EC50 that approximates it; ≥ and ≤ were set here for values at or beyond the usual limits of such assays; conditions: source organism: Vaccinia virus WR
[17] = target: HLA-A*31:01; experiment: as above; conditions: source organism: Vaccinia virus WR
[18] = target: HLA-A*33:01; experiment: as above; conditions: source organism: Vaccinia virus WR
[19] = target: HLA-A*11:01; experiment: as above; conditions: source organism: Vaccinia virus WR
[20] = target: HLA-A*03:01; experiment: as above; conditions: source organism: Vaccinia virus WR
[21] = target: HLA-A*69:01; experiment: IEDB peptide-MHC binding, purified MHC/direct/fluorescence; filed as Kd, often an IC50 or EC50 that approximates it; ≥ and ≤ were set here for values at or beyond the usual limits of such assays; conditions: source organism: Homo sapiens
[22] = target: HLA-A*01:01; experiment: as above; conditions: source organism: Homo sapiens
[23] = target: HLA-A*11:01; experiment: as above; conditions: source organism: Homo sapiens
[24] = source organism: Vaccinia virus WR
[25] = source organism: Zaire ebolavirus
[26] = source organism: Dengue virus 2 Jamaica/1409/1983
[27] = source organism: Mammarenavirus lassaense
[28] = source organism: Dengue virus 3 Martinique/1243/1999
[29] = source organism: Trypanosoma cruzi
[30] = source organism: Sudan ebolavirus
[31] = source organism: Toxoplasma gondii
[32] = source organism: Brucella abortus 2308
[33] = source organism: Dengue virus 4 Dominica/814669/1981

Sequence: RTKPASAPI
Kd [1, 24]: 0.114 nM

Sequence: KVVRVQRPAK
Kd ([1]; source organism: Dengue virus 1 Brazil/97-11/1997): 6.11 nM

Sequence: HYWTTQDEG
IC50 [2, 25]: 42800 nM

Sequence: RTRYDTFKV
Kd [1, 24]: 0.197 nM

Sequence: SHLTTLATI
IC50 [2, 25]: 402 nM | IC50 [3, 25]: 13200 nM

Sequence: TTTESRCPTQ
Kd [1, 26]: ≥ 28700 nM

Sequence: ASPILRFLY
Kd [4]: 1100 nM | Kd [5]: 97.4 nM | Kd [6, 27]: 9660 nM | Kd [7]: 91.7 nM | Kd [1, 27]: ≥ 78100 nM | Kd [8]: 331 nM

Sequence: ETYQLWTALI
Kd [9, 28]: 2.28 nM | Kd [6, 28]: 114 nM

Sequence: VNNLEHGLF
IC50 [2, 25]: 25400 nM

Sequence: TTELRTFSI
IC50 [2, 25]: 12200 nM | IC50 [3, 25]: 68300 nM

Sequence: NARLMRALK
Kd [1, 24]: 2.22 nM

Sequence: FVNYNFTLV
Kd [10]: 10.4 nM | Kd [9, 29]: 0.336 nM | Kd [11]: 0.759 nM | Kd [12, 29]: 0.0031 nM

Sequence: HTHLSNQNL
Kd [1, 24]: 5.78 nM

Kd ([9]; source organism: Homo sapiens): 19700 nM
Sequence: NLQKESRACL

Sequence: FHKDGAFFL
IC50 [2, 30]: 6730 nM | IC50 [3, 30]: ≥ 92900 nM

Sequence: HAYQGDYKL
IC50 [2, 25]: 20900 nM | IC50 [3, 25]: ≥ 78000 nM

Sequence: PFDAVLYYH
IC50 [2, 25]: 4690 nM

Sequence: AVSFSSPIS
Kd [1, 24]: 1310 nM

Sequence: RFRTVLISK
Kd ([1]; source organism: Vaccinia virus Copenhagen): 4.59 nM

Sequence: QTQSRPIQN
IC50 [2, 25]: ≥ 128000 nM

Sequence: YAPFARLLN
IC50 [2, 25]: 19300 nM | IC50 [3, 25]: ≥ 87800 nM

Sequence: KSKQLKSFL
Kd [1, 24]: 13.2 nM

Sequence: RTLAAMPEE
IC50 [2, 25]: 6750 nM | IC50 [3, 25]: ≥ 351000 nM

Sequence: CTILAVVSV
Kd ([9]; source organism: Dengue virus 2 16681-PDK53): 54.1 nM

Sequence: FTMTHRRPTI
Kd [9, 28]: 114 nM | Kd [12, 28]: 647 nM | Kd [13, 28]: ≥ 20400 nM

Sequence: KTSGRGSCM
Kd [14, 31]: 6000 nM | Kd [15, 31]: ≥ 20000 nM

Sequence: LLGLWGLATA
Kd [10]: 1.69 nM | Kd [9, 29]: 407 nM | Kd [11]: 1.39 nM | Kd [12, 29]: 57.9 nM

Sequence: KRSNTTGKL
IC50 [2, 25]: 66100 nM

Sequence: GLLPSLLLLL
Kd [10]: 3.06 nM | Kd [9, 29]: ≥ 33000 nM | Kd [11]: 1.83 nM | Kd [12, 29]: 7.28 nM

Sequence: AVKDVTITK
Kd [1, 24]: 2.16 nM

Sequence: WPLSKMDIGV
Kd ([13]; source organism: Dengue virus 2 Peru/IQT2913/1996): 2670 nM

Sequence: QRWGGTCHI
IC50 [2, 25]: 43300 nM

Sequence: GVVTRSGAYV
Kd [9, 26]: 333 nM

Sequence: VARGARFFL
Kd [14, 32]: ≥ 20000 nM | Kd [15, 32]: 509 nM

Sequence: TTKDYFSFK
Kd [16]: 1.07 nM | Kd [1, 24]: 1.23 nM | Kd [17]: 1.33 nM | Kd [18]: 17.6 nM | Kd [19]: 0.861 nM | Kd [20]: 18.1 nM

Sequence: EVLTLATGPI
Kd [9, 33]: 100 nM | Kd [6, 33]: 10400 nM

Kd [21]: 3960 nM | Kd [22]: 42.6 nM | Kd [23]: 6940 nM
Sequence: GSEDRDLLY
